Test results taken from article PMC8499050.

Key:
Experiment in all cases: ITC
[1] = target: human activated factor IX (Homo sapiens) (UniProt P00740)
[2] = target: human factor X (zymogen) (Homo sapiens) (UniProt P00742)
[3] = target: human factor IX (zymogen) (Homo sapiens) (UniProt P00740)
[4] = target: human activated factor X (Homo sapiens) (UniProt P00742)
Sequence of human activated factor X (Homo sapiens) (P00742 235-488, chain 1 of 2): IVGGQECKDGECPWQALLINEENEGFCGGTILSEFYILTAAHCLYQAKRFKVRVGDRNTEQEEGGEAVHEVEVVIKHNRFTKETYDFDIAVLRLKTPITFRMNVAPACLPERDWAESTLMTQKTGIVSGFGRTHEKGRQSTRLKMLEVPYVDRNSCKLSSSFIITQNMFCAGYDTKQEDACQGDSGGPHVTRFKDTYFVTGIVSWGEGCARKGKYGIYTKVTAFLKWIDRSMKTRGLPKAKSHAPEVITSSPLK
Sequence of human activated factor X (Homo sapiens) (P00742 235-488, chain 2 of 2): as the sequence (P00742 235-488, chain 1 of 2) above

Sequence of human activated factor IX (Homo sapiens) (P00740 47-191, chain 1 of 2): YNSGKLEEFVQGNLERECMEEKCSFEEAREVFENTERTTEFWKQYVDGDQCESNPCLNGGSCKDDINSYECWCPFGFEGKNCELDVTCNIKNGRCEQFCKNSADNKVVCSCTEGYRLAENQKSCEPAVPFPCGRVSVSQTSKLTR
Sequence of human activated factor IX (Homo sapiens) (P00740 227-461, chain 2 of 2): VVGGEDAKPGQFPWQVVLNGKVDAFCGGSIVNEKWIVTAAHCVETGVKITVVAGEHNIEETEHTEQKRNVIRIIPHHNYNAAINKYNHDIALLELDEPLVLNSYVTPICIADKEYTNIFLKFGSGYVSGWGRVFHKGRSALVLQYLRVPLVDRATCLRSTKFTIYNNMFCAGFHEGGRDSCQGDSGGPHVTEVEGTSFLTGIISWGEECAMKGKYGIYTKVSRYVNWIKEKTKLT
Sequence of human factor X (zymogen) (Homo sapiens) (P00742 whole entry, looked up): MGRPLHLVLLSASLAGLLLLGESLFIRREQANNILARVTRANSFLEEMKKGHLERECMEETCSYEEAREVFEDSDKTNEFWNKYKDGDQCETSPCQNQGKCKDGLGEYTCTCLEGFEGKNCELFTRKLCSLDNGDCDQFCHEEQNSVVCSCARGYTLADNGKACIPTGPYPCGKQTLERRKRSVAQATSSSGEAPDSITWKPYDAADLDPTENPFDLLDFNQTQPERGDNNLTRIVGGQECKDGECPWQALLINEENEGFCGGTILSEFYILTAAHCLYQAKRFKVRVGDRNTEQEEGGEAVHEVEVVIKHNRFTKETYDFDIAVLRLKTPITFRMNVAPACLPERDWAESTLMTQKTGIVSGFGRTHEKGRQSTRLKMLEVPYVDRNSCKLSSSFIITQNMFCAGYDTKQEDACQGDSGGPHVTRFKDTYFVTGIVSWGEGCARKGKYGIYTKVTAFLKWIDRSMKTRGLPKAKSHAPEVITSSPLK
Sequence of human factor IX (zymogen) (Homo sapiens) (P00740 47-461): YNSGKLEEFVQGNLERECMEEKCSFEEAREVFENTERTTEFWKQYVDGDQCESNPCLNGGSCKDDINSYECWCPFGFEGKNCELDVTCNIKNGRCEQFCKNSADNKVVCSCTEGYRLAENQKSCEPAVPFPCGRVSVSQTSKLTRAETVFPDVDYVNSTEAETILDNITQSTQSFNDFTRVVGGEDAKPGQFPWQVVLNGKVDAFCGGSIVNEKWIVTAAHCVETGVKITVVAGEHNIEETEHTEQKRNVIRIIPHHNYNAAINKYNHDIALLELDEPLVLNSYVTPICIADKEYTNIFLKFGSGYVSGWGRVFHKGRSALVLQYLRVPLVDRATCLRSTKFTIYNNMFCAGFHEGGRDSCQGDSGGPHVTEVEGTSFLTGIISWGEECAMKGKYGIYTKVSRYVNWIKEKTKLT

Kd [1]: 2300 nM
Kd [2]: 1500 nM
Kd [3]: 4.7 µM
Kd [4]: 300 nM
Substance: Mim8 (bispecific antibody)
